# From patent US5965443
# Key:
# [1] = molecular target: Tn5 transposase EK54/MA56/LP372 (in-cell assay) (Escherichia coli (transposon Tn5)?) (UniProt Q46731); experiment: cell_activity; conditions: at least about 100-fold transposase activity; assay substrate not detailed for this test
# [2] = molecular target: Tn5 transposase EK54 (with MA56, pRZ5412-EK54) P372L (Escherichia coli (transposon Tn5)?) (UniProt Q46731); experiment: cell_activity; conditions: mutant at position 54 alone; MA56 background inferred
# [3] = molecular target: Tn5 transposase LP372 K54E (Escherichia coli (transposon Tn5)?) (UniProt Q46731); experiment: cell_activity; conditions: mutant at position 372 alone; MA56 background inferred
# [4] = molecular target: T1, Tn5 transposase EK54/MA56/LP372 (modified, hyperactive) (Escherichia coli (transposon Tn5)?) (UniProt Q46731); conditions: in vitro transposition; 0.1 M K glutamate, 25 mM Tris acetate pH 7.5, 10 mM Mg acetate, 20 C 60 min then 37 C 2-3 h; underestimates total events; scale: % of plasmid-receiving cells
# T1 sequence: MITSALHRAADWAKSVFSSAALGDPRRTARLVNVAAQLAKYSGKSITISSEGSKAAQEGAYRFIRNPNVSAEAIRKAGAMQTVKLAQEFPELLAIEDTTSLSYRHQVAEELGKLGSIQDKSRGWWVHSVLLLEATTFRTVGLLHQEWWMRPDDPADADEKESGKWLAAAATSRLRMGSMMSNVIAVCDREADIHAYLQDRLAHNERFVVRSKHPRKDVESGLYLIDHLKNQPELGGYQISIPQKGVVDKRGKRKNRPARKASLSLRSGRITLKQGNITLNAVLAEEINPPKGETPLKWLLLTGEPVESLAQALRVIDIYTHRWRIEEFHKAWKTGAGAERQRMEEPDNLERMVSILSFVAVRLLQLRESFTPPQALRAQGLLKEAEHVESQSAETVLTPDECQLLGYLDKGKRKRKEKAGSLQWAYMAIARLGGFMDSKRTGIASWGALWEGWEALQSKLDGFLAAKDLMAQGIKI
Substance,transposase activity (fold activity vs wild type) [1],transposase activity (fold activity vs wild type) [2],transposase activity (fold activity vs wild type) [3],activity [4]
lacZ-containing Tn5 transposable element in E. coli MDW320,> 100,10,10,–
pRZTL1 circular plasmid (two inverted Tn5 19 bp OE termini),–,–,–,0.1
